Columns and labels:
Experiment in all cases: SPR (Biacore), antibody captured, FcgR analyte, 25 C
[1] = target: T1, cynomolgus monkey FcγRIIa1 extracellular domain, C-terminal His-tag (cynomolgus monkey)
T1 construct: also called cyno FcγRIIa1; cynoFcgRIIa1; not shown: His-tag added to C-terminus
T1 chain: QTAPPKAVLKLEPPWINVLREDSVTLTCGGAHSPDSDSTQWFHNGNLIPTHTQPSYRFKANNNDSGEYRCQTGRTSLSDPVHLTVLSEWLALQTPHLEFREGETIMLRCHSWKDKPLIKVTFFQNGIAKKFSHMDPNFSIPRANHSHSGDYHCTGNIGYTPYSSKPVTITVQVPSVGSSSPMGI
Description: (§1) The kinetic analysis of interactions between these antibodies and FcγR was carried out using BIACORE® T200 or BIACORE® 4000 (GE Healthcare). HBS-EP+ (GE Healthcare) was used as the running buffer, and the measurement temperature was set to 25° C. A chip produced by immobilizing Protein A. Protein A/G or mouse anti-human IgG kappa light chain (BD Biosciences) onto a Series S Sensor Chip CM4 or CM5 (GE Healthcare) by the amine-coupling method was used. […] After the measurement, the antibody captured on the chip was washed off by allowing reaction with 10 mM glycine-HCl, pH1.5 and 25 mM NaOH so that the chip was regenerated and used repeatedly. The sensorgrams obtained as measurement results were analyzed by the 1:1 Langmuir binding model using the BIACORE® Evaluation Software to calculate the binding rate constant ka (L/mol/s) and dissociation rate constant kd (l/s), and the dissociation constant KD (mol/L) was calculated from these values. […] Regarding such interactions, KD values were calculated using the following 1:1 binding model described in BIACORE® T100 Software Handbook BR1006-48 Edition AE.
(§2) The behavior of interacting molecules according to the 1:1 binding model on BIACORE® can be described by Equation 1: Req=C·R max/(KD+C)+RI, wherein, Req is a plot of steady-state binding levels to analyte concentration. C is concentration, RI is bulk refractive index contribution in the sample, and Rmax is analyte binding capacity of the surface. When this equation is rearranged, KD can be expressed as Equation 2: KD=C·Rmax/(Req−RI)−C. KD can be calculated by substituting the values of Rmax, RI, and C into Equation 1 or Equation 2. From the current measurement conditions, RI=0, C=2 μmol/L can be used.

[2] = target: T2, cynomolgus monkey FcγRIIa2 extracellular domain, C-terminal His-tag (cynomolgus monkey)
T2 construct: also called cyno FcγRIIa2; cynoFcgRIIa2; not shown: His-tag added to C-terminus
T2 chain: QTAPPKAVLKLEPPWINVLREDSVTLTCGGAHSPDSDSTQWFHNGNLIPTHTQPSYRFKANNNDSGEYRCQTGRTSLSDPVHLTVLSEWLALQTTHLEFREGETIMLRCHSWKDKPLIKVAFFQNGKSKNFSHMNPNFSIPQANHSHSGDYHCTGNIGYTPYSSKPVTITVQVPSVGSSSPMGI
Description: as §1, §2

[3] = target: T3, cynomolgus monkey FcγRIIa3 extracellular domain, C-terminal His-tag (cynomolgus monkey)
T3 construct: also called cyno FcγRIIa3; cynoFcgRIIa3; not shown: His-tag added to C-terminus
T3 chain: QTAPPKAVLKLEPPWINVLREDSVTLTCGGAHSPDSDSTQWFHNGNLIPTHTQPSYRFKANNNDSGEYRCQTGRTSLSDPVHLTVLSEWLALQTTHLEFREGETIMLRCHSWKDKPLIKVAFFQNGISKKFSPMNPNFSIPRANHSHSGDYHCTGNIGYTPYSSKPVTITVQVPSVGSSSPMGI
Description: as §1, §2

[4] = target: T4, cynomolgus monkey FcγRIIb extracellular domain, C-terminal His-tag (cynomolgus monkey)
T4 construct: also called cyno FcγRIIb; cynoFcγRIIb; not shown: His-tag added to C-terminus
T4 chain: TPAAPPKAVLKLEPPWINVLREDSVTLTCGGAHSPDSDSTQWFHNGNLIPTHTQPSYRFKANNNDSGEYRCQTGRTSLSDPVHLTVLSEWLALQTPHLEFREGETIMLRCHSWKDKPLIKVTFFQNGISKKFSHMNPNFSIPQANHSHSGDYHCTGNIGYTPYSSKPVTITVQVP
Description: as §1, §2

[5] = target: T5, cynomolgus monkey FcγRIIIaS extracellular domain, C-terminal His-tag (cynomolgus monkey, UniProt A3RFZ7 21-206 (rhesus entry))
T5 construct: also called cyno FcγRIIIaS; cynoFcγRIIIaS; not shown: His-tag added to C-terminus
T5 sequence (A3RFZ7 21-206): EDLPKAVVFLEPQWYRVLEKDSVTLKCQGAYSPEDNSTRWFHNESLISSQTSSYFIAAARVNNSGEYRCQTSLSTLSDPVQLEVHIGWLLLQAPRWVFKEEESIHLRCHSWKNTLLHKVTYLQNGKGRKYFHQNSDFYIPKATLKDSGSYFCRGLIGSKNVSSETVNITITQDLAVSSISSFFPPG
Description: as §1, §2

[6] = target: T6, human FcγRIIaH extracellular domain, C-terminal His-tag (human, UniProt P12318 34-217)
T6 construct: also called human FcγRIIa (type H); FcgRIIaH; not shown: His-tag added to C-terminus
T6 sequence: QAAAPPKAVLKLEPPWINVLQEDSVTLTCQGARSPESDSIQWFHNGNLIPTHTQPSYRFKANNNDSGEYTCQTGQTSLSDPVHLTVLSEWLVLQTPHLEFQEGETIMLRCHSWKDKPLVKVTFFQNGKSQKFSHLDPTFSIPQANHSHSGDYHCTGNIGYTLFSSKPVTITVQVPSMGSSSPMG
Description: as §1, §2

[7] = target: T7, human FcγRIIaR extracellular domain, C-terminal His-tag (human, UniProt P12318 34-217)
T7 construct: also called human FcγRIIa (type R); FcgRIIaR; not shown: His-tag added to C-terminus
T7 chain: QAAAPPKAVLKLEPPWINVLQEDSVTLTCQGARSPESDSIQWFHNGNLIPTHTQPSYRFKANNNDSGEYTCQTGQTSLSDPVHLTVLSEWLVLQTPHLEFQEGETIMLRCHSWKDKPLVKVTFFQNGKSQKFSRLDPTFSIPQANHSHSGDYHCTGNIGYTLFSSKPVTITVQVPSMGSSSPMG
Description: as §1, §2

[8] = target: T8, human FcγRIIb extracellular domain, C-terminal His-tag (human, UniProt P31994 43-217)
T8 construct: also called FcgRIIb (human); not shown: His-tag added to C-terminus
T8 sequence: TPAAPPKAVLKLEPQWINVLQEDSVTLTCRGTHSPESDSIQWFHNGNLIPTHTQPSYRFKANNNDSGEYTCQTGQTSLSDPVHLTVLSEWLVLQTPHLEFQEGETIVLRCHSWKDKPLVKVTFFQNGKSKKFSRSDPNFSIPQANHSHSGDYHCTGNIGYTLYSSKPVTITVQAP
Description: as §1, §2

[9] = target: T9, human FcγRIIIaV extracellular domain, C-terminal His-tag (human, UniProt P08637 17-208)
T9 construct: also called FcgRIIIaV; not shown: His-tag added to C-terminus
T9 sequence (P08637 17-208 F176V): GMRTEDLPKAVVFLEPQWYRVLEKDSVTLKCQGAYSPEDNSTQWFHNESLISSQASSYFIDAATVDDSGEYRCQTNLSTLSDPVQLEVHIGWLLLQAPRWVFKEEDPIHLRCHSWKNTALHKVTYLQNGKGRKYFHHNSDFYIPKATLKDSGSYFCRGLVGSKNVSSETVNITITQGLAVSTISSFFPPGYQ
Description: as §1, §2

Kd [1]: 4 µM | Kd [2]: 4.4 µM | Kd [3]: 5.8 µM | Kd [4]: 0.95 µM | Kd [5]: 4 µM | Kd [6]: 0.51 µM | Kd [7]: 0.3 µM | Kd [8]: 0.26 µM | Kd [9]: 8.1 µM
B1: M103205H795-MY325/M103202L889-SK1 (antibody, human IgG1, kappa)
heavy: QVTLKESGPVLVKPTETLTLTCTVSGIDLSHDDISWVRQAPGKGLEWVGIISYAGSTYYASWAKGRLTISKDTSKNQVVLTMTNMDPVDTATYYCARGVPAYSHGGDLWGQGTLVTVSSASTKGPSVFPLAPSSKSTSGGTAALGCLVKDYFPEPVTVSWNSGALTSGVHTFPAVLQSSGLYSLSSVVTVPSSSLGTQTYICNVNHKPSNTKVDKKVEPKSCDKTHTCPPCPAPELLDGPSVFLFPPKPKDTLMISRTPEVTCVVVDVSDEDPEVKFNWYVDGVEVHNAKTKPREEQYNSTYRVVSVLTVLHQDWLNGKEYKCKVSNKALPKPIEKTISKAKGQPREPQVYTLPPSREEMTKNQVSLTCLVKGFYPSDIAVEWESNGQPENNYKTTPPVLDSDGSFFLYSKLTVDKSRWQQGNVFSCSVMHEALHNHYTQKSLSLSP
light: DIVMTQSPATLSLSPGERATLSCTSSQSVYHANWLSWFQQKPGQPPKLLIYWASTLAYGVPSRFSGSGSGTDFTLTISSLQPEDAATYYCAGGYGGGRYAFGQGTKVEIKRTVAAPSVFIFPPSDEQLKSGTASVVCLLNNFYPREAKVQWKVDNALQSGNSQESVTEQDSKDSTYSLSSTLTLSKADYEKHKVYACEVTHQGLSSPVTKSFNRGEC
